Test results: patent US20150361464A1, “METHODS, REAGENTS AND CELLS FOR BIOSYNTHESIZING COMPOUNDS” (INVISTA North America S.á r.l., priority 2014, published 2015)

Tests used:
Type in all cases: biochemical
[1] = ω-transaminase enzyme activity assay, forward direction (glutarate semialdehyde to 5-aminopentanoate), cell free extract
Method: A nucleotide sequence encoding an N-terminal His-tag was added to the genes from Chromobacterium violaceum and Rhodobacter sphaeroides encoding the ω-transaminases of SEQ ID NOs: 8 and 10 respectively (see FIG. 10) such that N-terminal HIS tagged ω-transaminases could be produced. Each of the resulting modified genes was cloned into a pET21a expression vector under control of the T7 promoter and each expression vector was transformed into a BL21[DE3] E. coli host. The resulting recombinant E. coli strains were cultivated at 37° C. in a 250 mL shake flask culture containing 50 mL LB media and antibiotic selection pressure, with shaking at 230 rpm. Each culture was induced overnight at 16° C. using 1 mM IPTG.
(§1) The pellet from each induced shake flask culture was harvested via centrifugation. Each pellet was resuspended and lysed via sonication. The cell debris was separated from the supernatant via centrifugation and the cell free extract was used immediately in enzyme activity assays.
Enzyme activity in the forward direction (i.e., glutarate semialdehyde to 5-aminopentanoate) was confirmed for the transaminase of SEQ ID NO: 10. Enzyme activity assays were performed in a buffer composed of a final concentration of 50 mM HEPES buffer (pH=7.5), 10 mM glutarate semialdehyde, 10 mM L-alanine and 100 μM pyridoxyl 5′ phosphate. Each enzyme activity assay reaction was initiated by adding a cell free extract of the ω-transaminase gene product or the empty vector control to the assay buffer containing the glutarate semialdehyde and incubated at 25° C. for 4 hours, with shaking at 250 rpm. The formation of pyruvate was quantified via RP-HPLC.

[2] = carboxylate reductase enzyme activity assay (5-hydroxypentanoate to 5-hydroxypentanal), NADPH consumption at 340 nm; details: purified enzyme enhanced by the gene product of sfp; 1 mM ATP, 1 mM NADPH, pH 7.5, room temperature, 20 minutes; against the empty vector control; FIG. 14
Method: A nucleotide sequence encoding a His-tag was added to the genes from Mycobacterium marinum, Mycobacterium smegmatis, Segniliparus rugosus, Mycobacterium massiliense, and Segniliparus rotundus that encode the carboxylate reductases of SEQ ID NOs: 2-4, 6 and 7, respectively (GenBank Accession Nos. ACC40567.1, ABK71854.1, EFV11917.1, EIV11143.1, and ADG98140.1, respectively) (see FIG. 10) such that N-terminal HIS tagged carboxylate reductases could be produced. Each of the modified genes was cloned into a pET Duet expression vector alongside a sfp gene encoding a His-tagged phosphopantetheine transferase from Bacillus subtilis, both under control of the T7 promoter. Each expression vector was transformed into a BL21[DE3] E. coli host along with the expression vectors from Example 3. Each resulting recombinant E. coli strain was cultivated at 37° C. in a 250 mL shake flask culture containing 50 mL LB media and antibiotic selection pressure, with shaking at 230 rpm. Each culture was induced overnight at 37° C. using an auto-induction media. […]
Enzyme activity (i.e., 5-hydroxypentanoate to 5-hydroxypentanal) assays were performed in triplicate in a buffer composed of a final concentration of 50 mM HEPES buffer (pH=7.5), 2 mM 5-hydroxypentanal, 10 mM MgCl2, 1 mM ATP, and 1 mM NADPH. […] The consumption of NADPH was monitored by absorbance at 340 nm. […]

[3] = ω-transaminase enzyme activity assay (cadaverine to 5-aminopentanal), cell free extract
Method: A nucleotide sequence encoding an N-terminal His-tag was added to the Chromobacterium violaceum, Pseudomonas aeruginosa, Pseudomonas syringae, and Escherichia coli genes encoding the ω-transaminases of SEQ ID NOs: 8 to 10 and 12, respectively (see, FIG. 10) such that N-terminal HIS tagged ω-transaminases could be produced. The modified genes were cloned into a pET21a expression vector under the T7 promoter. Each expression vector was transformed into a BL21[DE3] E. coli host. Each resulting recombinant E. coli strain were cultivated at 37° C. in a 250 mL shake flask culture containing 50 mL LB media and antibiotic selection pressure, with shaking at 230 rpm. Each culture was induced overnight at 16° C. using 1 mM IPTG.
as §1
Enzyme activity assays in the reverse direction (i.e., cadaverine to 5-aminopentanal) were performed in a buffer composed of a final concentration of 50 mM HEPES buffer (pH=7.5), 10 mM cadaverine, 10 mM pyruvate, and 100 μM pyridoxyl 5′ phosphate. […] The formation of L-alanine was quantified via RP-HPLC.

B1: SEQ ID NO: 10: Pseudomonas syringae ω-transaminase (b222 says Rhodobacter sphaeroides), N-terminal HIS tagged, cell free extract (protein, listed as Pseudomonas syringae)
chain: MSANNPQTLEWQALSSEHHLAPFSDYKQLKEKGPRIITRAEGVYLWDSEGNKILDGMSGLWCVAIGYGREELADAASKQMRELPYYNLFFQTAHPPVLELAKAISDIAPEGMNHVFFTGSGSEGNDTMLRMVRHYWALKGQPNKKTIISRVNGYHGSTVAGASLGGMTYMHEQGDLPIPGVVHIPQPYWFGEGGDMTPDEFGIWAAEQLEKKILELGVENVGAFIAEPIQGAGGVIVPPDSYWPKIKEILSRYDILFAADEVICGFGRTSEWFGSDFYGLRPDMMTIAKGLTSGYVPMGGLIVRDEIVAVLNEGGDFNHGFTYSGHPVAAAVALENIRILREEKIVERVRSETAPYLQKRLRELSDHPLVGEVRGVGLLGAIELVKDKTTRERYTDKGAGMICRTFCFDNGLIMRAVGDTMIIAPPLVISFAQIDELVEKARTCLDLTLAVLQG
modifications: N-terminal His tag
[1]; 10 mM glutarate semialdehyde, 10 mM L-alanine, pH 7.5, 25° C., 4 hours, against the empty vector control, FIG. 16
  acceptance of glutarate semialdehyde as substrate (formation of pyruvate from L-alanine, RP-HPLC): accepted glutarate semialdehyde as substrate
[1]; conclusion from reverse and forward direction assays
  acceptance of glutarate semialdehyde as substrate and synthesis of 5-aminopentanoate, concluded from reversibility of the ω-transaminase activity: accepted glutarate semialdehyde as substrate and synthesized 5-aminopentanoate

B2: SEQ ID NO: 6: Mycobacterium massiliense carboxylate reductase, N-terminal HIS tagged (protein)
chain: MTNETNPQQEQLSRRIESLRESDPQFRAAQPDPAVAEQVLRPGLHLSEAIAALMTGYAERPALGERARELVIDQDGRTTLRLLPRFDTTTYGELWSRTTSVAAAWHHDATHPVKAGDLVATLGFTSIDYTVLDLAIMILGGVAVPLQTSAPASQWTTILAEAEPNTLAVSIELIGAAMESVRATPSIKQVVVFDYTPEVDDQREAFEAASTQLAGTGIALETLDAVIARGAALPAAPLYAPSAGDDPLALLIYTSGSTGAPKGAMHSENIVRRWWIREDVMAGTENLPMIGLNFMPMSHIMGRGTLTSTLSTGGTGYFAASSDMSTLFEDMELIRPTALALVPRVCDMVFQRFQTEVDRRLASGDTASAEAVAAEVKADIRDNLFGGRVSAVMVGSAPLSEELGEFIESCFELNLTDGYGSTEAGMVFRDGIVQRPPVIDYKLVDVPELGYFSTDKPHPRGELLLKTDGMFLGYYKRPEVTASVFDADGFYMTGDIVAELAHDNIEIIDRRNNVLKLSQGEFVAVATLEAEYANSPVVHQIYVYGSSERSYLLAVVVPTPEAVAAAKGDAAALKTTIADSLQDIAKEIQLQSYEVPRDFIIEPQPFTQGNGLLTGIAKLARPNLKAHYGPRLEQMYAEIAEQQAAELRALHGVDPDKPALETVLKAAQALLGVSSAELAADAHFTDLGGDSLSALSFSDLLRDIFAVEVPVGVIVSAANDLGGVAKFVDEQRHSGGTRPTAETVHGAGHTEIRAADLTLDKFIDEATLHAAPSLPKAAGIPHTVLLTGSNGYLGHYLALEWLERLDKTDGKLIVIVRGKNAEAAYGRLEEAFDTGDTELLAHFRSLADKHLEVLAGDIGDPNLGLDADTWQRLADTVDVIVHPAALVNHVLPYNQLFGPNVVGTAEIIKLAITTKIKPVTYLSTVAVAAYVDPTTFDEESDIRLISAVRPIDDGYANGYGNAKWAGEVLLREAHDLCGLPVAVFRSDMILAHSRYTGQLNVPDQFTRLILSLIATGIAPGSFYQAQTTGERPLAHYDGLPGDFTAEAITTLGTQVPEGSEGFVTYDCVNPHADGISLDNFVDWLIEAGYPIARIDNYTEWFTRFDTAIRGLSEKQKQHSLLPLLHAFEQPSAAENHGVVPAKRFQHAVQAAGIGPVGQDGTTDIPHLSRRLIVKYAKDLEQLGLL
modifications: N-terminal His tag; Mycobacterium massiliense
notes: Mycobacterium massiliense carboxylate reductase, N-terminal HIS tagged
[2]
  acceptance of 5-hydroxypentanoate as substrate (consumption of NADPH, absorbance at 340 nm): accepted 5-hydroxypentanoate as substrate

B3: SEQ ID NO: 7: Segniliparus rotundus carboxylate reductase, N-terminal HIS tagged (protein, listed as Segniliparus rotundus)
chain: MTQSHTQGPQASAAHSRLARRAAELLATDPQAAATLPDPEVVRQATRPGLRLAERVDAILSGYADRPALGQRSFQTVKDPITGRSSVELLPTFDTITYRELRERATAIASDLAHHPQAPAKPGDFLASIGFISVDYVAIDIAGVFAGLTAVPLQTGATLATLTAITAETAPTLFAASIEHLPTAVDAVLATPSVRRLLVFDYRAGSDEDREAVEAAKRKIADAGSSVLVDVLDEVIARGKSAPKAPLPPATDAGDDSLSLLIYTSGSTGTPKGAMYPERNVAHFWGGVWAAAFDEDAAPPVPAINITFLPLSHVASRLSLMPTLARGGLMHFVAKSDLSTLFEDLKLARPTNLFLVPRVVEMLYQHYQSELDRRGVQDGTREAEAVKDDLRTGLLGGRILTAGFGSAPLSAELAGFIESLLQIHLVDGYGSTEAGPVWRDGYLVKPPVTDYKLIDVPELGYFSTDSPHPRGELAIKTQTILPGYYKRPETTAEVFDEDGFYLTGDVVAQIGPEQFAYVDRRKNVLKLSQGEFVTLAKLEAAYSSSPLVRQLFVYGSSERSYLLAVIVPTPDALKKFGVGEAAKAALGESLQKIARDEGLQSYEVPRDFIIETDPFTVENGLLSDARKSLRPKLKEHYGERLEAMYKELADGQANELRDIRRGVQQRPTLETVRRAAAAMLGASAAEIKPDAHFTDLGGDSLSALTFSNFLHDLFEVDVPVGVIVSAANTLGSVAEHIDAQLAGGRARPTFATVHGKGSTTIKASDLTLDKFIDEQTLEAAKHLPKPADPPRTVLLTGANGWLGRFLALEWLERLAPAGGKLITIVRGKDAAQAKARLDAAYESGDPKLAGHYQDLAATTLEVLAGDFSEPRLGLDEATWNRLADEVDFISHPGALVNHVLPYNQLFGPNVAGVAEIIKLAITTRIKPVTYLSTVAVAAGVEPSALDEDGDIRTVSAERSVDEGYANGYGNSKWGGEVLLREAHDRTGLPVRVFRSDMILAHQKYTGQVNATDQFTRLVQSLLATGLAPKSFYELDAQGNRQRAHYDGIPVDFTAESITTLGGDGLEGYRSYNVFNPHRDGVGLDEFVDWLIEAGHPITRIDDYDQWLSRFETSLRGLPESKRQASVLPLLHAFARPGPAVDGSPFRNTVFRTDVQKAKIGAEHDIPHLGKALVLKYADDIKQLGLL
modifications: N-terminal His tag
notes: Segniliparus rotundus carboxylate reductase, N-terminal HIS tagged
[2]
  acceptance of 5-hydroxypentanoate as substrate (consumption of NADPH, absorbance at 340 nm): accepted 5-hydroxypentanoate as substrate

B4: SEQ ID NO: 12: Escherichia coli ω-transaminase, N-terminal HIS tagged, cell free extract (protein, listed as Escherichia coli)
chain: MNRLPSSASALACSAHALNLIEKRTLDHEEMKALNREVIEYFKEHVNPGFLEYRKSVTAGGDYGAVEWQAGSLNTLVDTQGQEFIDCLGGFGIFNVGHRNPVVVSAVQNQLAKQPLHSQELLDPLRAMLAKTLAALTPGKLKYSFFCNSGTESVEAALKLAKAYQSPRGKFTFIATSGAFHGKSLGALSATAKSTFRKPFMPLLPGFRHVPFGNIEAMRTALNECKKTGDDVAAVILEPIQGEGGVILPPPGYLTAVRKLCDEFGALMILDEVQTGMGRTGKMFACEHENVQPDILCLAKALGGGVMPIGATIATEEVFSVLFDNPFLHTTTFGGNPLACAAALATINVLLEQNLPAQAEQKGDMLLDGFRQLAREYPDLVQEARGKGMLMAIEFVDNEIGYNFASEMFRQRVLVAGTLNNAKTIRIEPPLTLTIEQCELVIKAARKALAAMRVSVEEA
modifications: N-terminal His tag
notes: Escherichia coli ω-transaminase, N-terminal HIS tagged, cell free extract
[3]; 10 mM cadaverine, 10 mM pyruvate, pH 7.5, 25° C., 4 hours, against the empty vector control, FIG. 11
  acceptance of cadaverine as substrate (formation of L-alanine from pyruvate, RP-HPLC): accepted cadaverine as substrate
[3]; conclusion given reversibility (Example 1)
  acceptance of 5-aminopentanal as substrate forming cadaverine, concluded from reversibility of the ω-transaminase activity: accept 5-aminopentanal as substrate and form cadaverine
